Stoichiometry N data for 1 substance are collected here from article PMC6310155.

The target in this assay is MmRIPK3 (S02-H303) kinase domain, N-terminal histidine tag (mouse). Put plainly: SEC. For orientation: In gel filtration, larger molecules generally elute earlier.

By stoichiometry N is commonly meant the number of molecules, sites or subunits per partner or assembly.

For the substance “MmRIPK3 (S02-H303) kinase domain, N-terminal histidine tag (domain or fragment)”, the stoichiometry N was found to be 2.
